In US20220213176A1:
Like-named read-outs stand apart in the source and are kept apart here.

Key:
Conditions in all cases: remark: other sources report otherwise
[1] = biological target: T1, SARS-CoV-2 spike receptor binding domain, wild-type (S-RBD) (SARS-CoV-2), P0DTC2
[2] = biological target: full-length SARS-CoV-2 spike (SARS-CoV-2), P0DTC2
[3] = biological target: N501Y S-RBD (SARS-CoV-2), P0DTC2
[4] = biological target: SARS-CoV-2 spike D215H (SARS-CoV-2), P0DTC2
[5] = biological target: SARS-CoV-2 spike D614G (SARS-CoV-2), P0DTC2
[6] = biological target: SARS-CoV-2 spike E484K+N501Y+D614G (SARS-CoV-2), P0DTC2
[7] = biological target: T2, SARS-CoV-2 spike K417N+E484K+N501Y+D614G (SARS-CoV-2), P0DTC2
[8] = biological target: SARS-CoV-2 spike K417N+N501Y+D614G (SARS-CoV-2), P0DTC2
[9] = biological target: SARS-CoV-2 spike N439K+D614G (SARS-CoV-2), P0DTC2
[10] = biological target: SARS-CoV-2 spike N501Y+D614G (SARS-CoV-2), P0DTC2
[11] = biological target: SARS-CoV-2 spike S247R (SARS-CoV-2), P0DTC2
[12] = biological target: N501Y S-RBD (SARS-CoV-2), P0DTC2; assay: BLI (Octet), N501Y S-RBD amine coupled on AR2G sensor, 1:1 fit
[13] = biological target: SARS-CoV-2 spike E484K+N501Y+D614G (SARS-CoV-2), P0DTC2; assay: FACS MFI on transfected HEK293T cells, against D614G spike (mut 3)
[14] = biological target: T2, SARS-CoV-2 spike …; assay: as above
[15] = biological target: T1, SARS-CoV-2 spike receptor binding …; assay: BLI (Octet), S-RBD amine coupled on AR2G sensor, IgG4 in solution, 1:1 fit
[16] = biological target: N501Y S-RBD (SARS-CoV-2), P0DTC2; assay: BLI (Octet), N501Y S-RBD amine-coupled on AR2G sensor, 1:1 binding model
[17] = biological target: T1, SARS-CoV-2 spike receptor binding …; assay: BLI (Octet), S-RBD amine-coupled on AR2G sensor, 1:1 binding model [cont'd) h]
[18] = biological target: N501Y S-RBD (SARS-CoV-2), P0DTC2; assay: BLI (Octet), biotinylated N501Y S-RBD on SA sensor, 1:1 fit
[19] = biological target: B.1.351 S-RBD (SARS-CoV-2), P0DTC2; assay: BLI (Octet RED96), biotin B.1.351 S-RBD on SA sensor, 1:1 fit
[20] = biological target: T1, SARS-CoV-2 spike receptor binding …; assay: BLI (Octet), biotinylated S-RBD on SA sensor, IgG4 in solution, 1:1 fit
[21] = biological target: T1, SARS-CoV-2 spike receptor binding …; assay: BLI (Octet RED96), biotin S-RBD on SA sensor, 1:1 fit; dimer S-E6, WT S-RBD
[22] = biological target: N501Y S-RBD (SARS-CoV-2), P0DTC2; assay: BLI (Octet), biotinylated N501Y S-RBD on SA biosensor, 1:1 binding model
[23] = biological target: T1, SARS-CoV-2 spike receptor binding …; assay: BLI (Octet RED96), biotinylated WT S-RBD on SA biosensor, 1:1 binding model
[24] = biological target: T1, SARS-CoV-2 spike receptor binding …; assay: BLI (Octet), biotinylated S-RBD on SA biosensor, 1:1 binding model [cont'd) h]
[25] = biological target: B.1.351 S-RBD (SARS-CoV-2), P0DTC2; assay: BLI (Octet RED96), biotinylated B.1.351 S-RBD on SA biosensor, 1:1 binding model

| Binder | IC50 [1] [nM] | MFI [2] | koff [3] [s⁻¹] | kon [3] [M⁻¹ s⁻¹] | MFI [4] | MFI [5] | MFI [6] | MFI [7] | MFI [8] | MFI [9] | MFI [10] | MFI [11] | also measured |
| --- | --- | --- | --- | --- | --- | --- | --- | --- | --- | --- | --- | --- | --- |
| S-D4 (antibody, V domains shown) VH: QVQLQESGGGVVQPGRSLRLSCEVSGFTFSDYGMHWVRQAPGKGLEWVAVIWSEGSTEYYADSVKGRFTISRDNSKDTLYLQMNSLRAEDTAVYYCARPGYPTSTDRSPAAAGARQYYYYGMDVWGQGTTVTVSS VL: NFMLTQPHSVSESPGKTVTISCTRSGGSGAANYVQWYQQRPGSSPTTLIYEDSRRPPGVPDRFSGSVDTSSNSASLTISGLQTEDEADYYCQSYDSSNHVVFGGGTKLTVLG | 7.1 | 43000 | 4.2e-05 | 440000 | 411000 | 414000 | 138000 | 147000 | 155000 | 360000 | 281000 | 335000 | Kd [12]: 0.097 nM; MFI as percent of mut 3 [13]: 33.2 % of mut 3; MFI as percent of mut 3 [14]: 35.6 % of mut 3; Kd [15]: 0.12 nM; koff [16]: 4.2e-05 s⁻¹; kon [16]: 440000 M⁻¹ s⁻¹; koff [17]: 4.6e-05 s⁻¹; kon [17]: 390000 M⁻¹ s⁻¹ |
| S-E6 (antibody, V domains shown) VH: QVTLRESGPGLVKPSETLSLTCAVSGGSLSSVNYYWSWIRQHPGKGLEWIGYIYYSGSTNYNPSLKSRVTMSLDTSKNQFSLKLSSVTAADTAVYYCATPGAIMGALHIWGQGTLVTVSS VL: QAVLTQPSSASSTPGQRVIISCSGSSSNIGSNTVSWYQQVPGAAPKLLIYFDYRRPSGVPDRFSGTRSGTSASLGISGLQSEDEADYYCAAWDDSLSAWVFGRGTKLTVLG | 12.2 | 18200 | 0.00025 | 1.2e+06 | 135000 | 157000 | 139000 | 141000 | 312000 | 133000 | 153000 | 109000 | Kd [18]: 0.21 nM; Kd [19]: 1.58 nM; Kd [20]: 0.11 nM; Kd [21]: 0.0836 nM; koff [22]: 0.00025 s⁻¹; kon [22]: 1.2e+06 M⁻¹ s⁻¹; koff [23]: 3.37e-05 s⁻¹; kon [23]: 403000 M⁻¹ s⁻¹; koff [24]: 0.00013 s⁻¹; kon [24]: 1.2e+06 M⁻¹ s⁻¹; Kd [25]: 1.58 nM; koff [25]: 0.000915 s⁻¹; kon [25]: 581000 M⁻¹ s⁻¹ |
